35 molecules from patent US20260274985A1 (MYTHIC THERAPEUTICS, published 2026) can be followed below.

For this test, the target named is T1, Human TROP2 Protein, His Tag (Acro Biosystems) (human, UniProt P09758 27-274).
T1 construct: Bought antigen used at 50 nM in the Octet screen; also called TACSTD2; not shown: His tag
T1 sequence (looked up): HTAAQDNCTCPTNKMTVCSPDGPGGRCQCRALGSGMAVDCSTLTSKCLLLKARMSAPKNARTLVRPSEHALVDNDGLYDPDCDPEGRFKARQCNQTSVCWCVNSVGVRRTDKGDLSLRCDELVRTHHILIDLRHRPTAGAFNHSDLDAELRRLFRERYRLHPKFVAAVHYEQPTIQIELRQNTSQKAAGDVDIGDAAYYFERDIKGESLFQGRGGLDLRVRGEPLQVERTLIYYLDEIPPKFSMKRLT
The test is described as follows: BLI (Octet) [1/2]. Here is the method:
After allowing for four days of protein expression, cell culture supernatants were collected, quantified by SDS-PAGE analysis (DNS), and the pH dependence of the variant was evaluated using biolayer interferometry (BLI) on an Octet RED 96e instrument. Briefly, cell culture supernatants were diluted based on qualitative expression level of the variant determined by visual examination of SDS-PAGE gels, 5 μL of cell culture supernatant was diluted into 195 μL of 1×PBST, pH 7.4 for high expressors, 25 μL of cell culture supernatant was diluted into 175 μL of 1×PBST, pH 7.4 for medium expressors and 100 μL of cell culture supernatant was diluted into 100 μL of 1×PBST, pH 7.4 for low expressors for loading onto the sensor tips. The resulting diluted supernatants were then captured on an anti-human Fc sensor (Forte Bio). A baseline was established using 1×PBST (50 mM Potassium Phosphate Buffer+150 mM NaCl+0.05% Tween 20) pH 7.4, and the sensor was associated with 50 nM of TROP2 (Human TROP2 Protein, His Tag, Acro Biosystems) in 1×PBST pH 7.4 for 120 sec to generate an association curve. In the dissociation phase, the antibody-antigen complex on the sensor was exposed to 1×PBST pH 7.4 or pH 5.4, for 300 sec. Association and dissociation phase curves were examined for the starting ABPC antibody (with no substitutions) and each corresponding antibody variant at pH 5.4 and pH 7.4 to inform on two criteria: a) enhanced dissociation (i.e., higher koff values) at pH 5.4 due to histidine or alanine substitution compared to the starting ABPC, (with no substitutions), and b) reduced dissociation at pH 7.4 (i.e., lower koff values) compared to pH 5.4 in the antibody variant itself and with the starting ABPC (with no substitutions). […] It was also noted that while some mutations obliterated TROP2 binding, others were tolerated with little or n change in TROP2 binding kinetics.
A general note: BLI is a label-free optical method that tracks binding on a fibre tip over time.

Positions count from the first letter of the chain named.

B1: MYT11714 (antibody, V domains shown)
VH: QVQLQESGPGLVKPSETLSLTCTVSGGSISSYGVAWIRQPPGKGLEWIGVIWTSGVTDYNSALMGRVTISVDTSKNQFSLKLSSVTAADTAVYYCARDGDYDRYTMDYWGQGTLVTVSS
VL: DIVMTQSPDSLAVSLGERATINCRASKSVSTSGYSYMHWYQQKPGQPPKLLIYLASNLESGVPDRFSGSGSGTDFTLTISSLQAEDVAVYYCQHSRELPYTFGQGTKLEIK
notes: hu7E6SVG variant, Ala in place of His at HCV position 35 (H1 10); screened as IgG in Expi293 supernatant
With B1, the binding result is reported as “binds”.

B2: MYT11747 (antibody, V domains shown)
VH: B1 VH with A35H
VL: B1 VL with K27H
notes: hu7E6SVG variant, His at LCV position 27 (L1 04); screened as IgG in Expi293 supernatant
For the molecule B2, the binding result was “binds”.

B3: MYT11748 (antibody, V domains shown)
VH: B1 VH with A35H
VL: B1 VL with S28H
notes: hu7E6SVG variant, His at LCV position 28 (L1 05); screened as IgG in Expi293 supernatant
For B3, the binding result is “binds”.

B4: MYT11740 (antibody, V domains shown)
VH: B1 VH with A35H, T105H
VL: B1 VL
notes: screened as IgG in Expi293 supernatant
With B4, the binding result is given as “no binding (tested: 50 nM)”.

B5: MYT11721 (antibody, V domains shown)
VH: B1 VH with A35H, V56H
VL: B1 VL
notes: hu7E6SVG variant, His at HCV position 56 (H2 07); screened as IgG in Expi293 supernatant
On to B5, for which the binding result is listed as “binds”.

B6: MYT11733 (antibody, V domains shown)
VH: B1 VH with A35H, D98H
VL: B1 VL
notes: hu7E6SVG variant, His at HCV position 98 (H3 03); screened as IgG in Expi293 supernatant
With B6, the binding result was “no binding (tested: 50 nM)”.

B7: MYT11725 (antibody, V domains shown)
VH: B1 VH with A35H, N60H
VL: B1 VL
notes: hu7E6SVG variant, His at HCV position 60 (H2 11); screened as IgG in Expi293 supernatant
In the case of B7, the binding result is “binds”.

B8: MYT11719 (antibody, V domains shown)
VH: B1 VH with A35H, S54H
VL: B1 VL
notes: hu7E6SVG variant, His at HCV position 54 (H2 05); screened as IgG in Expi293 supernatant
Regarding B8, the binding result was “binds”.

B9: MYT11731 (antibody, V domains shown)
VH: B1 VH with A35H, A96H
VL: B1 VL
notes: hu7E6SVG variant, His at HCV position 96 (H3 01); screened as IgG in Expi293 supernatant
Regarding B9, the binding result was “no binding (tested: 50 nM)”.

B10: MYT11749 (antibody, V domains shown)
VH: B1 VH with A35H
VL: B1 VL with V29H
notes: hu7E6SVG variant, His at LCV position 29 (L1 06); screened as IgG in Expi293 supernatant
As to B10, the binding result was “no binding (tested: 50 nM)”.

B11: MYT11735 (antibody, V domains shown)
VH: B1 VH with A35H, D100H
VL: B1 VL
notes: hu7E6SVG variant, His at HCV position 100 (H3 05); screened as IgG in Expi293 supernatant
As to B11, the binding result was “binds”.

B12: MYT11715 (antibody, V domains shown)
VH: B1 VH with A35H, V50H
VL: B1 VL
notes: hu7E6SVG variant, His at HCV position 50 (H2 01); screened as IgG in Expi293 supernatant
As for B12, the binding result is “no binding (tested: 50 nM)”.

B13: MYT11743 (antibody, V domains shown)
VH: B1 VH with A35H, Y108H
VL: B1 VL
notes: as for B4
With B13, the binding result was “binds”.

B14: MYT11723 (antibody, V domains shown)
VH: B1 VH with A35H, D58H
VL: B1 VL
notes: hu7E6SVG variant, His at HCV position 58 (H2 09); screened as IgG in Expi293 supernatant
Consider B14, for which the binding result was “no binding (tested: 50 nM)”.

B15: MYT11718 (antibody, V domains shown)
VH: B1 VH with A35H, T53H
VL: B1 VL
notes: hu7E6SVG variant, His at HCV position 53 (H2 04); screened as IgG in Expi293 supernatant
Regarding B15, the binding result was “binds”.

B16: MYT11720 (antibody, V domains shown)
VH: B1 VH with A35H, G55H
VL: B1 VL
notes: hu7E6SVG variant, His at HCV position 55 (H2 06); screened as IgG in Expi293 supernatant
For B16, the binding result is “binds”.

B17: MYT11742 (antibody, V domains shown)
VH: B1 VH with A35H, D107H
VL: B1 VL
notes: as for B4
In the case of B17, the binding result is reported as “binds”.

B18: MYT11736 (antibody, V domains shown)
VH: B1 VH with A35H, Y101H
VL: B1 VL
notes: hu7E6SVG variant, His at HCV position 101 (H3 06); screened as IgG in Expi293 supernatant
As for B18, the binding result is “no binding (tested: 50 nM)”.

B19: MYT11726 (antibody, V domains shown)
VH: B1 VH with A35H, S61H
VL: B1 VL
notes: hu7E6SVG variant, His at HCV position 61 (H2 12); screened as IgG in Expi293 supernatant
On to B19, for which the binding result is recorded as “binds”.

B20: MYT11745 (antibody, V domains shown)
VH: B1 VH with A35H
VL: B1 VL with A25H
notes: hu7E6SVG variant, His at LCV position 25 (L1 02); screened as IgG in Expi293 supernatant
Consider B20, for which the binding result is “binds”.

B21: MYT11750 (antibody, V domains shown)
VH: B1 VH with A35H
VL: B1 VL with S30H
notes: hu7E6SVG variant, His at LCV position 30 (L1 07); screened as IgG in Expi293 supernatant
Regarding B21, the binding result is given as “binds”.

B22: MYT11729 (antibody, V domains shown)
VH: B1 VH with A35H, M64H
VL: B1 VL
notes: hu7E6SVG variant, His at HCV position 64 (H2 15); screened as IgG in Expi293 supernatant
Regarding B22, the binding result is listed as “binds”.

B23: MYT11734 (antibody, V domains shown)
VH: B1 VH with A35H, G99H
VL: B1 VL
notes: hu7E6SVG variant, His at HCV position 99 (H3 04); screened as IgG in Expi293 supernatant
For the molecule B23, the binding result is “no binding (tested: 50 nM)”.

B24: MYT11744 (antibody, V domains shown)
VH: B1 VH with A35H
VL: B1 VL with R24H
notes: hu7E6SVG variant, His at LCV position 24 (L1 01); screened as IgG in Expi293 supernatant
B24: the binding result is recorded as “binds”.

B25: MYT11738 (antibody, V domains shown)
VH: B1 VH with A35H, R103H
VL: B1 VL
For the molecule B25, the binding result is given as “binds”.

B26: MYT11739 (antibody, V domains shown)
VH: B1 VH with A35H, Y104H
VL: B1 VL
notes: hu7E6SVG variant, His at HCV position 104 (H3 09); screened as IgG in Expi293 supernatant
Take B26: the binding result is on record as “no binding (tested: 50 nM)”.

B27: MYT11727 (antibody, V domains shown)
VH: B1 VH with A35H, A62H
VL: B1 VL
notes: hu7E6SVG variant, His at HCV position 62 (H2 13); screened as IgG in Expi293 supernatant
Turning to B27, the binding result is recorded as “binds”.

B28: MYT11728 (antibody, V domains shown)
VH: B1 VH with A35H, L63H
VL: B1 VL
notes: hu7E6SVG variant, His at HCV position 63 (H2 14); screened as IgG in Expi293 supernatant
Consider B28, for which the binding result was “binds”.

B29: MYT11746 (antibody, V domains shown)
VH: B1 VH with A35H
VL: B1 VL with S26H
notes: hu7E6SVG variant, His at LCV position 26 (L1 03); screened as IgG in Expi293 supernatant
In the case of B29, the binding result is “binds”.

B30: MYT11722 (antibody, V domains shown)
VH: B1 VH with A35H, T57H
VL: B1 VL
notes: hu7E6SVG variant, His at HCV position 57 (H2 08); screened as IgG in Expi293 supernatant
With B30, the binding result is given as “binds”.

B31: MYT11737 (antibody, V domains shown)
VH: B1 VH with A35H, D102H
VL: B1 VL
notes: as for B4
With B31, the binding result is listed as “binds”.

B32: MYT11724 (antibody, V domains shown)
VH: B1 VH with A35H, Y59H
VL: B1 VL
Turning to B32, the binding result is recorded as “binds”.

B33: MYT11732 (antibody, V domains shown)
VH: B1 VH with A35H, R97H
VL: B1 VL
notes: hu7E6SVG variant, His at HCV position 97 (H3 02); screened as IgG in Expi293 supernatant
As for B33, the binding result is “binds”.

B34: MYT11730 (antibody, V domains shown)
VH: B1 VH with A35H, G65H
VL: B1 VL
notes: hu7E6SVG variant, His at HCV position 65 (H2 16); screened as IgG in Expi293 supernatant
For the molecule B34, the binding result was “binds”.

B35: MYT11716 (antibody, V domains shown)
VH: B1 VH with A35H, I51H
VL: B1 VL
notes: hu7E6SVG variant, His at HCV position 51 (H2 02); screened as IgG in Expi293 supernatant
For the molecule B35, the binding result is listed as “binds”.
